Source: patent US20210009686A1 (BEIJING XUANYI PHARMASCIENCES, published 2021)

Assays:
claudin 18.2 (CLDN18.2) [1] = target: T1, claudin 18.2 (CLDN18.2) (human); experiment: in-cell ELISA, HEK293-CLDN18.2 cells
T1 construct: also called Claudin 18 isotype 2; HEK293-CLDN18.2
Protocol: (§1) In-cell ELISAs were performed as follows: 5×10³ HEK293-CLDN18.2 cells were seeded per well in a poly-L-lysine-coated 96-well plate. The plates were then incubated at 37° C. with 5% CO₂ for 2 days. Following incubation, culture media was removed from each well, and the HEK293-CLDN18.2 cells were blocked with 200 μl blocking buffer (3% BSA/PBS (pH 7.4)) per well for 1 hour at room temperature. Each hybridoma supernatant was incubated with cells at room temperature for 1 hour. Cells were gently washed 3 times with 200 μl PBS (pH 7.4) containing 1 mM Ca²⁺ and 0.5 mM Mg²⁺. Next, cells were incubated with 100 μl of HRP-conjugated goat anti-human IgG (H+L) antibody for 1 hour at room temperature. Following the incubation, the cells were washed three times with 200 μl PBS (pH 7.4) containing 1 mM Ca²⁺ and 0.5 mM Mg²⁺. 100 μl of 1-Step™ Ultra TMB-ELISA Substrate was added to each well, and the reactions were stopped by addition of 50 μl of stop solution. OD₄₅₀ was measured using CLARIOStar microplate reader. The in-cell ELISAs were repeated for each clone using HEK293-CLDN18.1 cells.
The in-cell ELISAs were performed as described above. […] Cells were washed, and analyzed by FACS.

claudin 18.2 (CLDN18.2) [2] = target: T1, claudin 18.2 (CLDN18.2); experiment: FACS, HEK293-CLDN18.2 cells
Protocol: The interaction of 20 purified chimeric antibodies with CLDN18.2 was assessed by in-cell ELISAs and FACS using HEK293-CLDN18.2 cells. […] The FACS assays were performed as follows: Serial dilutions for each antibody clone shown in Tables 7 and 8 were prepared and stained with HEK293-CLDN18.2 cells on ice for 30 min, with final antibody concentrations of 10 g/ml, 3 g/ml, 1 g/ml, 0.3 μg/ml, 0.1 μg/ml, 0.03 μg/ml, 0.01 μg/ml, and 0 μg/ml. […] Cells were washed, and analyzed by FACS.

claudin 18.1 (CLDN18.1) = target: T2, claudin 18.1 (CLDN18.1) (human, UniProt P56856 1-261); experiment: in-cell ELISA, HEK293-CLDN18.1 cells
T2 construct: also called HEK293-CLDN18.1
T2 sequence (P56856 whole entry): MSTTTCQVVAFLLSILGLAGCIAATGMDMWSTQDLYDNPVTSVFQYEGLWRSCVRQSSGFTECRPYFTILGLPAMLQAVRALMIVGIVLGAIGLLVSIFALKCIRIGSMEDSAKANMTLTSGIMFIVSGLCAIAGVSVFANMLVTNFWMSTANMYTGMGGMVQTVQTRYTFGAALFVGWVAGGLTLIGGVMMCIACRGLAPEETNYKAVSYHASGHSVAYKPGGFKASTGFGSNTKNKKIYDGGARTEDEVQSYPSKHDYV
Protocol: as §1

Row | Binder | EC50 (claudin 18.2 (CLDN18.2) [1]) [µg/mL] | EC50 (claudin 18.2 (CLDN18.2) [2]) [µg/mL] | binding result (claudin 18.1 (CLDN18.1))
1 | chimeric Ab 10-P12-A (antibody, V domains shown) VH: EIQLQQSGAELVKPGTSVKISCKASGYSFTGYNMNWVKQSHGKSLEWIGNINPYYSNTNYNQRFKGKATLTVDKSSSTAYMQLNSLTSEDSAVYYCARHVRGNSFDYWGQGTTLTVSS VL: DIVMTQSPSSLTVTAGERVTVGCKSRQSLFNSENQKNYLSWYQQKPGQPPKLLLYWTSTRESGVPERFTGSGSGTDFTLTISSVQAEDLAVYYCQNNYIYPFTFGSGTKLEIK | 0.106 | 0.018 | 
2 | chimeric Ab 10-J10-B (antibody, V domains shown, also called 10-110-B; 10-10-B) VH: QVQLQQSGAELARPGASVKLSCKASGYTFTSWSISWVKQRTGQGLEWIGEIYPRSDNIHYNEKFKGKATLTADKSSSTVYMQLSSLTSEDSAVYFCARAYYGNSFAYWGQGTLVTVSA VL: DIVMTQSPSSLTVTAGEKVTMTCKSSQILLNSGNQKNYLTWYQQKPGQPPKLLIYWASTRESGVPDRFTGSGSGTDFSLTISSVQAEDLAIYYCQNDYYYPFTFGSGTKLEIK | 0.062 | 0.141 | no binding (tested: 1 µg/ml)
3 | chimeric Ab 6-C5-A (antibody, V domains shown) VH: EVQLVESGGGLVKPGGSRKLSCAASGFTFSDYGMHWVRQAPEKGLEWVAYISSGSSTIYYADTMKGRFTISRDNAKNTLFLQMTSLRSEDTAMYYCTRFARGNTMDYWGQGTSVTVSS VL: DIVMTQSPSSLTVTAGEKVTMSCKSSQSLLNSGNQRNYLTWYQRKPGQPPKLLIYWASTRESGVPDRFTGSGSGTDFTLTISSVQAEDLTFYYCQNGYSYPLTFGAGTKLELK | 0.058 | 0.044 | no binding (tested: 1 µg/ml)
4 | chimeric Ab 7-G17-A (antibody, V domains shown) VH: EVQLVESGGGLVKPGGSRKLSCAVSGFTFSDYGMYWVRQAPEKGLEWVAYISSGSSTIYYADTVKGRFTMSRDNAKNTLFLQMTSLRSEDTAMYYCARIARGNAMDYWGQGTSVTVSS VL: DIVMTQSPSSLTVTPGEKVTMSCKSSQSLFNSGNQRNYLAWYQQKPGQPPKLLIYWASTRESGVPDRFTGSGSGTDFTLTISSVQAEDLAVYYCQNDYFYPLTFGAGTKLELK | 0.098 | 0.033 | 
5 | chimeric Ab 9-A13-B (antibody, V domains shown) VH: EVQLVESGGGLVKPGGSRKLSCAASGFSFSDYGMHWVRQAPEKGLEWVAHISSGSSTIYYADTMKGRFTISRDNAKNTLFLQMTSLRSEDTAMYYCARFARGNTMDYWGQGTSVTVSS VL: DIVMTQSPSSLTVTAGEKVTMSCKSSQSLLNSGNQKNYLTWYQQKPGQPPKLLIYWASTRESGVPDRFTGSGSGTDFTLTISSVQAEDLTVYYCQNGYSYPLTFGAGTKLELK | 0.15 | 0.068 | 
6 | chimeric Ab 9-N14-A (antibody, V domains shown) VH: EVQLVESGGGLVKPGGSRKLSCAASGFTFSDYGMYWVRQAPEKGLEWLAYISSGSNNIYYADTVKGRFTISRDNAKNTLFLQMTSLRSEDTAMYYCARIARGNAMDYWGQGTSVIVSS VL: DIVMTQSPSSLTVTAGEKVTMSCKSSQSLLNSGNQKNYLTWYQQKPGQPPKLLIYWASTRESGVPDRFTGSGSGTDFTLTISSVQAEDLAVYYCQNDYIYPLTFGAGTKLGLK | 0.218 | 0.075 | no binding (tested: 1 µg/ml)
7 | chimeric Ab 2-D22-A (antibody, V domains shown) VH: EVQLVESGGGLVKPGGSRKLSCAASGFTFSDYGMHWVRQAPEKGLEWIAYISSGSSSIYYADTVKGRFTMSRDNAKKTLFLQTTSLRSEDTAMYYCARIARGNAMDYWGQGTSVTVTS VL: DIVMTQSPSSLTVTAGEKVTMSCKSSQSLLNSGNQRNYLAWYQQKPGQPPKLLIYWASTRESGVPDRFTGSGSGTDFTLTISSVQAEDLAVYYCQNDYSYPLTFGAGTKLELK | 0.065 | 0.051 | 
8 | chimeric Ab 6-M11-A (antibody, V domains shown) VH: EVQLVESGGGSVKPGGSRKLSCAASGFTFSDYGMHWVRQAPEKGLEWVAYISSGSNTFYYTDTVKGRFTISRDNAKNTLFLQMTGLRSEDTAMYYCARFTRGNALDYWGQGTSVTVSS VL: DIVMTQSPSSLTVTAGEKVTMSCKSSQSLLNSGNQKNYLTWYQQKPGQPPKLLLYWASTRESGVPDRFTGSGSGTDFTLTISSVQAEDLTVYYCQNAYSYPLTFGAGTKLELK | 0.098 | 0.026 | 
9 | chimeric Ab 1-H16-A (antibody, V domains shown) VH: EVQLVESGGGLVKPGGSRKLSCAASGFTFSDYGMYWVRQAPEKGLEWVAFISSGSSTIYCADTVKGRFTISRDNAKNTLFLQMTSLRSEDTAMYYCARIARGNAMDYWGQGTSVTVSS VL: DIVMTQSPSSLTVTAGERVTMSCKSSQSLLNSGNLKNYLTWYQQKPGQPPKLLIYWASTRESGVPDRFTGSGSGTDFTLTISTVQAEDLAVYYCQNDYFYPLTFGAGTKLELK | 0.08 | 0.101 | 
10 | chimeric Ab 9-M7-A (antibody, V domains shown) VH: EVQLVESGGALVKPGGSLKLSCAASGFTFSNYAMSWIRQTPEKRLEWVATIIIGGTYTYYPDSVKGRFTISRDNAKNTLYLQMSSLRSEDTALYYCARQVYGNSFAYWGQGTLVTVSA VL: DIVMTQSPSSLTVTAGEKVTMSCKSSQSLLNSGNQKNYLTWYQQKPGQPPKLLIYWASTRESGVPDRFTGSGSGTDFTLTISSVQAEDLAVYYCQNNYIYPFTFGSGTKLEIK | 0.154 | 0.095 | no binding (tested: 1 µg/ml)
11 | chimeric Ab 9-B11-A (antibody, V domains shown) VH: EVQLVESGGGLVKPGGSRKLSCAASGFTFSDYGMHWVRQAPEKGLEWVAYISSGSSPIYYADTVKGRFTISRDNAKNTLFLQMTSLRSEDTAMYYCARFARGNAMDYWGQGTSVTVSS VL: DIVMTQSPSSLTVTAGEKVTMSCKSSQSLLNSGNQKNYLTWYQQKPGQPPKLLIYWASTRDSGVPDRFTGSGSGTDFTLTISSVQAEDLAVYYCQNNYYYPLTFGAGTNLELK | 0.069 | 0.045 | no binding (tested: 1 µg/ml)
12 | chimeric Ab 1-M5-A (antibody, V domains shown) VH: EVQLVESGGALVKSGGSLRLSCAASGFTFSNNAMSWIRQTPEKRLEWVATIIIGGTYTYYPDSVKGRFTISRDNAKNTLYLQMSSLRSEDTAFYYCARQVYGNSFAYWGQGTLVSVSA VL: DIVMTQSPSSLTVTAGEKVTMSCKSSQSLLNSGNQKNYLTWYQQKPGQPPKLLIYWASTRESGVPDRFTGSGSGTDFTLTISSVQAEDLAVYYCQNNYFYPFTFGSGTKLEIK | 0.042 | 0.044 | no binding (tested: 1 µg/ml)
